In paper PMC8093215 one finds Kd and stoichiometry N data, which are given here for one substance.

In this test the target is human DNMT1 BAH1 domain (residues 728-900), Y775A (human) (UniProt P26358). As to the kind of experiment: ITC; 1 mM H4K20me peptide titrated over 0.1 mM hDNMT1 BAH1 or BAH2 domain; 25 mM Tris-HCl pH 7.5, 100 mM NaCl, 2 mM DTT; 5 °C; single-site binding mode. Background: ITC needs no label: the signal is the heat of the interaction.
Chain of human DNMT1 BAH1 domain (residues 728-900), Y775A (human) (P26358 728-900 Y775A): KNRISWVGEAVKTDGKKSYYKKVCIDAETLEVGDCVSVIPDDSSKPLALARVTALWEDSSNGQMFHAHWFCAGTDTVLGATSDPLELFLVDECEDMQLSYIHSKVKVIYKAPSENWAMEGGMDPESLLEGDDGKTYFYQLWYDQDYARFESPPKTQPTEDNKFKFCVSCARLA

In the case of “H4(14-25)K20me3 peptide (from UniProt P62805 15-26)”, the Kd came to 361 µM and the stoichiometry N turned out to be 1.

In general, Kd refers to the concentration at which binding is half-saturated. Read a low Kd as tighter binding. What is called stoichiometry N is the number of molecules, sites or subunits per partner or assembly.
